{"source": "patent US20080311599", "proteins": {"B1": {"name": "recombinant active caspase-8 (protein)", "chain 1": "EELCGVMTISDSPREQDSESQTLDKVYQMKSKPRGYCLIINNHNFAKAREKVPKLHSIRDRNGTHLDAGALTTTFEELHFEIKPHHDCTVEQIYEILKIYQLMDHSNMDCFICCILSHGDKGIIYGTDGQEAPIYELTSQFTGLKCPSLAGKPKVFFI", "chain 2": "MDFSRNLYDIGEQLDSEDLASLKFLSLDYIPQRKQEPIKDALMLFQRLQEKRMLEESNLSFLKELLFRINRLDLLITYLNTRKEEMERELQTPGRAQISAYRFHFCRMSWAEANSQCQTQSVPFWRRVDHLLIRVMLYQISEEVSRSELRSFKFLLQEEISKCKLDDDMNLLDIFIEMEKRVILGEGKLDILKRVCAQINKSLLKIINDYEEFSKGEELCGVMTISDSPREQDSESQTLDKVYQMKSKPRGYCLIINNHNFAKAREKVPKLHSIRDRNGTHLDAGALTTTFEELHFEIKPHHDCTVEQIYEILKIYQLMDHSNMDCFICCILSHGDKGIIYGTDGQEAPIYELTSQFTGLKCPSLAGKPKVFFIQACQGDNYQKGIPVETDSEEQPYLEMDLSSPQTRYIPDEADFLLGMATVNNCVSYRNPAEGTWYIQSLCQSLRERCPRGDDILTILTEVNYEVSNKDDKKNMGKQMPQPTFTLRKKLVFPSD"}}, "key": {"[1]": {"target": "T1, p72 (D600E)", "T1 chain": "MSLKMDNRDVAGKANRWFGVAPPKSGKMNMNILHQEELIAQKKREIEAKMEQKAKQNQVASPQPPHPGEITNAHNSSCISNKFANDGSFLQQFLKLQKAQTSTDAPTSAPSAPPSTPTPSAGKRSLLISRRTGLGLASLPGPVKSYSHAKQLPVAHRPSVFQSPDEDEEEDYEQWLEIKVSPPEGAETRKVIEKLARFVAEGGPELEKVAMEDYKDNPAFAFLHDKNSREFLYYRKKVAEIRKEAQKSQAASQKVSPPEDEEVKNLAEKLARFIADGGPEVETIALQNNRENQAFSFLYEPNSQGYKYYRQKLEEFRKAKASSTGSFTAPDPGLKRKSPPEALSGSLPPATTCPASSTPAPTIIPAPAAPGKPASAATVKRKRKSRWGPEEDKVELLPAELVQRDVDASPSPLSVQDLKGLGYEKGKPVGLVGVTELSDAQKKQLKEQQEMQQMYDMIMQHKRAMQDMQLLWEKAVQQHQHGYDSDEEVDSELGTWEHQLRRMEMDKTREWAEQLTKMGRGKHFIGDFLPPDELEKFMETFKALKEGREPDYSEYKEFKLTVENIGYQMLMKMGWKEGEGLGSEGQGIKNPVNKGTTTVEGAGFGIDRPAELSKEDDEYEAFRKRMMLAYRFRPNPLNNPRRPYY"}, "[2]": {"target": "T2, p72 (1-600)", "T2 chain": "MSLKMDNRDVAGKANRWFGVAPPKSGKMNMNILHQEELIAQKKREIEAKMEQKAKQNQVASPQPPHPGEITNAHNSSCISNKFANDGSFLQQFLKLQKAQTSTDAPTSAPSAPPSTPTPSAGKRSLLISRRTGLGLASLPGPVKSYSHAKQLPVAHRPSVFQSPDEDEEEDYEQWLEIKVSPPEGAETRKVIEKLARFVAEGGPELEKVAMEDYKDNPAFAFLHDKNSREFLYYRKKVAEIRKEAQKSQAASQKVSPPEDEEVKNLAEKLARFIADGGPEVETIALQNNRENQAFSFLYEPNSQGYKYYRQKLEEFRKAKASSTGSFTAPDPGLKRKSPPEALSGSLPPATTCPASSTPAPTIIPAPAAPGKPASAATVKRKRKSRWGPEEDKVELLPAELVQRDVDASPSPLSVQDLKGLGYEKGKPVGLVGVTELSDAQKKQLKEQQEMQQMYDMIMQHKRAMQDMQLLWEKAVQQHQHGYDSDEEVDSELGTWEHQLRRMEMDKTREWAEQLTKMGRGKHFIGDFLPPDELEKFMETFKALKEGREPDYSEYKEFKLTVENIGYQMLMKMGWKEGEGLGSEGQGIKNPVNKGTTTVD"}, "[3]": {"target": "T3, p72", "T3 chain": "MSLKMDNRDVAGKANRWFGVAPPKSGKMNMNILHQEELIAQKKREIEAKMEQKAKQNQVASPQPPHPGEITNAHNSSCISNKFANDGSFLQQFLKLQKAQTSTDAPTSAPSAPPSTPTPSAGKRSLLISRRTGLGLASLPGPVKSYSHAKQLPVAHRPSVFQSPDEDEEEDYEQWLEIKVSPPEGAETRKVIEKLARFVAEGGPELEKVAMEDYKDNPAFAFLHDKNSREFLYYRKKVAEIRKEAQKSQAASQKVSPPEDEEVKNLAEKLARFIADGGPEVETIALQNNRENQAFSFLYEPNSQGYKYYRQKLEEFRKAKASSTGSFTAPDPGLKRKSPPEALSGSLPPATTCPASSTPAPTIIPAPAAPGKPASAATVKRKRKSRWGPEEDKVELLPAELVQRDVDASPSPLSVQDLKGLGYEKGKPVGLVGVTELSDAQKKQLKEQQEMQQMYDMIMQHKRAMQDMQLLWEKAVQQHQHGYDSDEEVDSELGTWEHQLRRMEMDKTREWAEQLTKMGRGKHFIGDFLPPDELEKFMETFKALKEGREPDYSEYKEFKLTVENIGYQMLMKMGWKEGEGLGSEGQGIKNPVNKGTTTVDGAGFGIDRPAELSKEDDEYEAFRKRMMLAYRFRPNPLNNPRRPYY"}}, "data": [{"protein": "B1", "values": [{"measurement": "cleavage of 35S-labelled p72 mutant in vitro, SDS-PAGE and phospho-imaging", "setting": "[1]", "value": "the same protein profile of p72 D600E mutant is observed in the presence or absence of caspase-8"}, {"measurement": "cleavage of 35S-labelled p72 mutant in vitro, SDS-PAGE and phospho-imaging", "setting": "[2]", "value": "The p72 1-600 mutant co-migrates with the 68 kDa fragment produced after cleavage of the wild type p72 and is not further cleaved by addition of caspase-8 (lanes 2 and 5)"}, {"measurement": "cleavage of 35S-labelled p72 in vitro, SDS-PAGE and phospho-imaging", "setting": "[3]", "value": "This band disappears after addition of activated caspase-8 for 1 hour and a new smaller fragment corresponding to 68 kDa appears (lane 4)"}]}]}
